T1: Mycobacterium tuberculosis RNA polymerase β subunit (M. tuberculosis, UniProt P9WGY9 1-1178)
T1 sequence: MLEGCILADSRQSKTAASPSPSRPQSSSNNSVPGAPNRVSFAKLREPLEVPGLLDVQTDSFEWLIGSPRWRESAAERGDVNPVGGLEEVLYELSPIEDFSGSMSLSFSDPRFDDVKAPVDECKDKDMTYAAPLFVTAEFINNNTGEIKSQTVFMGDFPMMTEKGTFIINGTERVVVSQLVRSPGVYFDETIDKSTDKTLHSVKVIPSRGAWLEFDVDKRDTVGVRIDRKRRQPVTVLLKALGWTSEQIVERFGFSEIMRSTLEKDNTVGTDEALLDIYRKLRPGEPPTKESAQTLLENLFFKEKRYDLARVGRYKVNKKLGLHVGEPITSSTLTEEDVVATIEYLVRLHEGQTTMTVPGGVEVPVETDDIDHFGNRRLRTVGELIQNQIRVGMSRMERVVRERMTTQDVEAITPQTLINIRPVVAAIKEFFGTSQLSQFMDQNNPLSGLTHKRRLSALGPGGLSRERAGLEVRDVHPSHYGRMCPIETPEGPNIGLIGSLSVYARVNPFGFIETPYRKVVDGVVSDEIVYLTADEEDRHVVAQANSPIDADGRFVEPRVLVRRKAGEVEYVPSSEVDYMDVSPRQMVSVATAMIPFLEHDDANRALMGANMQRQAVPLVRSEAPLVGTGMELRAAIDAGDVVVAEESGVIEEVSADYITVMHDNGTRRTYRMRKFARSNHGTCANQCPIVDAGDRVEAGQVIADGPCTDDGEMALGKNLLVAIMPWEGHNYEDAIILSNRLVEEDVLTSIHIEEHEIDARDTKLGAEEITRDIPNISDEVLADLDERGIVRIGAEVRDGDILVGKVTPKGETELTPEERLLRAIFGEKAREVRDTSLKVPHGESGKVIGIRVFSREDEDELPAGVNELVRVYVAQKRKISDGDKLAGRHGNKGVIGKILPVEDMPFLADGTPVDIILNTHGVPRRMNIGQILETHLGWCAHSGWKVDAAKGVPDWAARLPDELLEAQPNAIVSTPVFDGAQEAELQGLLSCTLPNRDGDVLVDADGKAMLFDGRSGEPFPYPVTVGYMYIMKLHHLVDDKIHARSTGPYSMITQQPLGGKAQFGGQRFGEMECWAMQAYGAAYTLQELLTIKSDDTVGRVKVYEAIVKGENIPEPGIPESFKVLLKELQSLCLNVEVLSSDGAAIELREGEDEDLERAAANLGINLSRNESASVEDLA

T2: Mycobacterium tuberculosis σ^A (co-expressed with RbpA) (M. tuberculosis, UniProt P9WGI1)
T2 sequence: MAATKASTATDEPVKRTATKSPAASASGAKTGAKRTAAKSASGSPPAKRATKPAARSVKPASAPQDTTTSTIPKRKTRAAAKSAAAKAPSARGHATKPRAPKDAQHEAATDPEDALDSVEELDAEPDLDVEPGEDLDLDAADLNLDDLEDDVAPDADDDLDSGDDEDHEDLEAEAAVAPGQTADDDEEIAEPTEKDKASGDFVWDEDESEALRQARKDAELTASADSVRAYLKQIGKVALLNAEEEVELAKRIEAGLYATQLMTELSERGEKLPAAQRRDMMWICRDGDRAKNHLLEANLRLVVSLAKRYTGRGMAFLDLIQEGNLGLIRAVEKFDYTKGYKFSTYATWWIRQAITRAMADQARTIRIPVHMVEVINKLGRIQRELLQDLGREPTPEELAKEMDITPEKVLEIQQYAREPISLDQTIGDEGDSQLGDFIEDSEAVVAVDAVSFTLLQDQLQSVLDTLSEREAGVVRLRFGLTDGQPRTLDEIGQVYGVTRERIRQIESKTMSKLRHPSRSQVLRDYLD

B1: Mycobacterium tuberculosis σ^A (Strep-tag II-σ^A, co-expressed with WhiB7) (natural protein)
chain: AATKASTATDEPVKRTATKSPAASASGAKTGAKRTAAKSASGSPPAKRATKPAARSVKPASAPQDTTTSTIPKRKTRAAAKSAAAKAPSARGHATKPRAPKDAQHEAATDPEDALDSVEELDAEPDLDVEPGEDLDLDAADLNLDDLEDDVAPDADDDLDSGDDEDHEDLEAEAAVAPGQTADDDEEIAEPTEKDKASGDFVWDEDESEALRQARKDAELTASADSVRAYLKQIGKVALLNAEEEVELAKRIEAGLYATQLMTELSERGEKLPAAQRRDMMWICRDGDRAKNHLLEANLRLVVSLAKRYTGRGMAFLDLIQEGNLGLIRAVEKFDYTKGYKFSTYATWWIRQAITRAMADQARTIRIPVHMVEVINKLGRIQRELLQDLGREPTPEELAKEMDITPEKVLEIQQYAREPISLDQTIGDEGDSQLGDFIEDSEAVVAVDAVSFTLLQDQLQSVLDTLSEREAGVVRLRFGLTDGQPRTLDEIGQVYGVTRERIRQIESKTMSKLRHPSRSQVLRDYLD
B2: Mycobacterium tuberculosis WhiB7 (6His-WhiB7) (natural protein)
chain: MSVLTVPRQTPRQRLPVLPCHVGDPDLWFADTPAGLEVAKTLCVSCPIRRQCLAAALQRAEPWGVWGGEIFDQGSIVSHKRPRGRPRKDAVA
B3: Mycobacterium tuberculosis CarD (natural protein)
chain: MIFKVGDTVVYPHHGAALVEAIETRTIKGEQKEYLVLKVAQGDLTVRVPAENAEYVGVRDVVGQEGLDKVFQVLRAPHTEEPTNWSRRYKANLEKLASGDVNKVAEVVRDLWRRDQERGLSAGEKRMLAKARQILVGELALAESTDDAKAETILDEVLAAAS
B4: Mycobacterium tuberculosis RbpA (co-expressed with σ^A) (natural protein)
chain: MADRVLRGSRLGAVSYETDRNHDLAPRQIARYRTDNGEEFEVPFADDAEIPGTWLCRNGMEGTLIEGDLPEPKKVKPPRTHWDMLLERRSIEELEELLKERLELIRSRRRG
B5: Mycobacterium tuberculosis RbpA (expressed alone from pET20b) (natural protein)
chain: B4 chain

Common to all, as to test: cryo-EM structure
Experiment [1] concerns the target Mycobacterium tuberculosis RNA polymerase β’ subunit (M. tuberculosis, UniProt P9WGY7).
Experiment [2] deals with T1, Mycobacterium tuberculosis RNA ….
Experiment [3] has as its target B1.
In experiment [4] the target is T2, Mycobacterium tuberculosis σ^A ….

As to B1, the binding result in experiment [1] and in experiment [2] was “binds” each time. As to B2, the binding result in experiment [3] and in experiment [1] was “binds” throughout. Take B3: the binding result in experiment [2] is recorded as “binds”. With B4, in experiment [4], the binding result is given as “binds”. Take B5: the binding result in experiment [3] was “binds”.

For the origin of these results see paper PMC8311663 (Molecular cell, 2021).
